Source: ChEMBL document CHEMBL3508693

Key:
Format in all cases: ADME, microsomes
[1] = substrate: COCCCOc1cc(C[C@@H](C[C@H](N)[C@@H](O)C[C@H](C(=O)NCC(C)(C)C(N)=O)C(C)C)C(C)C)ccc1OC; assay: Enzyme kinetics constant (Km value) for CYP2D6 was determined in human liver microsome incubated with [14C]SPP100 hemifumarate
[2] = substrate: COCCCOc1cc(C[C@@H](C[C@H](N)[C@@H](O)C[C@H](C(=O)NCC(C)(C)C(N)=O)C(C)C)C(C)C)ccc1OC; assay: Enzyme kinetics constant (Km value) for CYP2E1 was determined in human liver microsome incubated with [14C]SPP100 hemifumarate
[3] = substrate: COCCCOc1cc(C[C@@H](C[C@H](N)[C@@H](O)C[C@H](C(=O)NCC(C)(C)C(N)=O)C(C)C)C(C)C)ccc1OC; assay: Enzyme kinetics constant (Km value) for CYP2J2 was determined in human liver microsome incubated with [14C]SPP100 hemifumarate
[4] = substrate: COCCCOc1cc(C[C@@H](C[C@H](N)[C@@H](O)C[C@H](C(=O)NCC(C)(C)C(N)=O)C(C)C)C(C)C)ccc1OC; assay: Enzyme kinetics constant (Km value) for CYP3A5 was determined in human liver microsome incubated with [14C]SPP100 hemifumarate
[5] = substrate: COCCCOc1cc(C[C@@H](C[C@H](N)[C@@H](O)C[C@H](C(=O)NCC(C)(C)C(N)=O)C(C)C)C(C)C)ccc1OC; assay: Enzyme kinetics constant (Km value) for CYP3A7 was determined in human liver microsome incubated with [14C]SPP100 hemifumarate
[6] = substrate: COCCCOc1cc(C[C@@H](C[C@H](N)[C@@H](O)C[C@H](C(=O)NCC(C)(C)C(N)=O)C(C)C)C(C)C)ccc1OC; assay: Enzyme kinetics constant (Km value) for CYP4A11 was determined in human liver microsome incubated with [14C]SPP100 hemifumarate
[7] = substrate: COCCCOc1cc(C[C@@H](C[C@H](N)[C@@H](O)C[C@H](C(=O)NCC(C)(C)C(N)=O)C(C)C)C(C)C)ccc1OC; assay: Enzyme kinetics constant (Km value) for CYP4F2 was determined in human liver microsome incubated with [14C]SPP100 hemifumarate
[8] = substrate: COCCCOc1cc(C[C@@H](C[C@H](N)[C@@H](O)C[C@H](C(=O)NCC(C)(C)C(N)=O)C(C)C)C(C)C)ccc1OC; assay: Enzyme kinetics constant (Km value) for CYP4F3B was determined in human liver microsome incubated with [14C]SPP100 hemifumarate

B1: Cytochrome P450 2D6 (Homo sapiens) (protein)
chain: MGLEALVPLAVIVAIFLLLVDLMHRRQRWAARYPPGPLPLPGLGNLLHVDFQNTPYCFDQLRRRFGDVFSLQLAWTPVVVLNGLAAVREALVTHGEDTADRPPVPITQILGFGPRSQGVFLARYGPAWREQRRFSVSTLRNLGLGKKSLEQWVTEEAACLCAAFANHSGRPFRPNGLLDKAVSNVIASLTCGRRFEYDDPRFLRLLDLAQEGLKEESGFLREVLNAVPVLLHIPALAGKVLRFQKAFLTQLDELLTEHRMTWDPAQPPRDLTEAFLAEMEKAKGNPESSFNDENLRIVVADLFSAGMVTTSTTLAWGLLLMILHPDVQRRVQQEIDDVIGQVRRPEMGDQAHMPYTTAVIHEVQRFGDIVPLGVTHMTSRDIEVQGFRIPKGTTLITNLSSVLKDEAVWEKPFRFHPEHFLDAQGHFVKPEAFLPFSAGRRACLGEPLARMELFLFFTSLLQHFSFSVPTGQPRPSHHGVFAFLVSPSPYELCAVPR
B1 showed a Km [1] of 73.6 µM and a Vmax [1] of 0.00548 µmol/min/mg.

B2: Cytochrome P450 2E1 (Homo sapiens) (protein)
chain: MSALGVTVALLVWAAFLLLVSMWRQVHSSWNLPPGPFPLPIIGNLFQLELKNIPKSFTRLAQRFGPVFTLYVGSQRMVVMHGYKAVKEALLDYKDEFSGRGDLPAFHAHRDRGIIFNNGPTWKDIRRFSLTTLRNYGMGKQGNESRIQREAHFLLEALRKTQGQPFDPTFLIGCAPCNVIADILFRKHFDYNDEKFLRLMYLFNENFHLLSTPWLQLYNNFPSFLHYLPGSHRKVIKNVAEVKEYVSERVKEHHQSLDPNCPRDLTDCLLVEMEKEKHSAERLYTMDGITVTVADLFFAGTETTSTTLRYGLLILMKYPEIEEKLHEEIDRVIGPSRIPAIKDRQEMPYMDAVVHEIQRFITLVPSNLPHEATRDTIFRGYLIPKGTVVVPTLDSVLYDNQEFPDPEKFKPEHFLNENGKFKYSDYFKPFSTGKRVCAGEGLARMELFLLLCAILQHFNLKPLVDPKDIDLSPIHIGFGCIPPRYKLCVIPRS
For B2, the Km [2] was 31.9 µM and the Vmax [2] was 4.62e-05 µmol/min/mg.

B3: Cytochrome P450 2J2 (Homo sapiens) (protein)
chain: MLAAMGSLAAALWAVVHPRTLLLGTVAFLLAADFLKRRRPKNYPPGPWRLPFLGNFFLVDFEQSHLEVQLFVKKYGNLFSLELGDISAVLITGLPLIKEALIHMDQNFGNRPVTPMREHIFKKNGLIMSSGQAWKEQRRFTLTALRNFGLGKKSLEERIQEEAQHLTEAIKEENGQPFDPHFKINNAVSNIICSITFGERFEYQDSWFQQLLKLLDEVTYLEASKTCQLYNVFPWIMKFLPGPHQTLFSNWKKLKLFVSHMIDKHRKDWNPAETRDFIDAYLKEMSKHTGNPTSSFHEENLICSTLDLFFAGTETTSTTLRWALLYMALYPEIQEKVQAEIDRVIGQGQQPSTAARESMPYTNAVIHEVQRMGNIIPLNVPREVTVDTTLAGYHLPKGTMILTNLTALHRDPTEWATPDTFNPDHFLENGQFKKREAFMPFSIGKRACLGEQLARTELFIFFTSLMQKFTFRPPNNEKLSLKFRMGITISPVSHRLCAVPQV
B3 was tested, and the Km [3] was 67 µM and the Vmax [3] was 0.000604 µmol/min/mg.

B4: Cytochrome P450 3A5 (Homo sapiens) (protein)
chain: MDLIPNLAVETWLLLAVSLVLLYLYGTRTHGLFKRLGIPGPTPLPLLGNVLSYRQGLWKFDTECYKKYGKMWGTYEGQLPVLAITDPDVIRTVLVKECYSVFTNRRSLGPVGFMKSAISLAEDEEWKRIRSLLSPTFTSGKLKEMFPIIAQYGDVLVRNLRREAEKGKPVTLKDIFGAYSMDVITGTSFGVNIDSLNNPQDPFVESTKKFLKFGFLDPLFLSIILFPFLTPVFEALNVSLFPKDTINFLSKSVNRMKKSRLNDKQKHRLDFLQLMIDSQNSKETESHKALSDLELAAQSIIFIFAGYETTSSVLSFTLYELATHPDVQQKLQKEIDAVLPNKAPPTYDAVVQMEYLDMVVNETLRLFPVAIRLERTCKKDVEINGVFIPKGSMVVIPTYALHHDPKYWTEPEEFRPERFSKKKDSIDPYIYTPFGTGPRNCIGMRFALMNMKLALIRVLQNFSFKPCKETQIPLKLDTQGLLQPEKPIVLKVDSRDGTLSGE
For B4, the Km [4] was 28.7 µM and the Vmax [4] was 0.00135 µmol/min/mg.

B5: Cytochrome P450 3A7 (Homo sapiens) (protein)
chain: MDLIPNLAVETWLLLAVSLILLYLYGTRTHGLFKKLGIPGPTPLPFLGNALSFRKGYWTFDMECYKKYRKVWGIYDCQQPMLAITDPDMIKTVLVKECYSVFTNRRPFGPVGFMKNAISIAEDEEWKRIRSLLSPTFTSGKLKEMVPIIAQYGDVLVRNLRREAETGKPVTLKHVFGAYSMDVITSTSFGVSIDSLNNPQDPFVENTKKLLRFNPLDPFVLSIKVFPFLTPILEALNITVFPRKVISFLTKSVKQIKEGRLKETQKHRVDFLQLMIDSQNSKDSETHKALSDLELMAQSIIFIFAGYETTSSVLSFIIYELATHPDVQQKVQKEIDTVLPNKAPPTYDTVLQLEYLDMVVNETLRLFPVAMRLERVCKKDVEINGMFIPKGVVVMIPSYVLHHDPKYWTEPEKFLPERFSKKNKDNIDPYIYTPFGSGPRNCIGMRFALVNMKLALVRVLQNFSFKPCKETQIPLKLRFGGLLLTEKPIVLKAESRDETVSGA
B5 showed a Km [5] of 32.6 µM and a Vmax [5] of 0.000113 µmol/min/mg.

B6: Cytochrome P450 4A11 (Homo sapiens) (protein)
chain: MSVSVLSPSRLLGDVSGILQAASLLILLLLLIKAVQLYLHRQWLLKALQQFPCPPSHWLFGHIQELQQDQELQRIQKWVETFPSACPHWLWGGKVRVQLYDPDYMKVILGRSDPKSHGSYRFLAPWIGYGLLLLNGQTWFQHRRMLTPAFHYDILKPYVGLMADSVRVMLDKWEELLGQDSPLEVFQHVSLMTLDTIMKCAFSHQGSIQVDRNSQSYIQAISDLNNLVFSRVRNAFHQNDTIYSLTSAGRWTHRACQLAHQHTDQVIQLRKAQLQKEGELEKIKRKRHLDFLDILLLAKMENGSILSDKDLRAEVDTFMFEGHDTTASGISWILYALATHPKHQERCREEIHSLLGDGASITWNHLDQMPYTTMCIKEALRLYPPVPGIGRELSTPVTFPDGRSLPKGIMVLLSIYGLHHNPKVWPNPEVFDPFRFAPGSAQHSHAFLPFSGGSRNCIGKQFAMNELKVATALTLLRFELLPDPTRIPIPIARLVLKSKNGIHLRLRRLPNPCEDKDQL
With B6 the Km [6] was 3.1 µM and the Vmax [6] was 1.55e-05 µmol/min/mg.

B7: Cytochrome P450 4F2 (Homo sapiens) (protein)
chain: MSQLSLSWLGLWPVAASPWLLLLLVGASWLLAHVLAWTYAFYDNCRRLRCFPQPPRRNWFWGHQGMVNPTEEGMRVLTQLVATYPQGFKVWMGPISPLLSLCHPDIIRSVINASAAIAPKDKFFYSFLEPWLGDGLLLSAGDKWSRHRRMLTPAFHFNILKPYMKIFNESVNIMHAKWQLLASEGSACLDMFEHISLMTLDSLQKCVFSFDSHCQEKPSEYIAAILELSALVSKRHHEILLHIDFLYYLTPDGQRFRRACRLVHDFTDAVIQERRRTLPSQGVDDFLQAKAKSKTLDFIDVLLLSKDEDGKKLSDEDIRAEADTFMFEGHDTTASGLSWVLYHLAKHPEYQERCRQEVQELLKDREPKEIEWDDLAHLPFLTMCMKESLRLHPPVPVISRHVTQDIVLPDGRVIPKGIICLISVFGTHHNPAVWPDPEVYDPFRFDPENIKERSPLAFIPFSAGPRNCIGQTFAMAEMKVVLALTLLRFRVLPDHTEPRRKPELVLRAEGGLWLRVEPLS
B7 showed a Km [7] of 11.3 µM and a Vmax [7] of 8.91e-05 µmol/min/mg.

B8: Cytochrome P450 4F3 (Homo sapiens) (protein)
chain: MPQLSLSSLGLWPMAASPWLLLLLVGASWLLARILAWTYTFYDNCCRLRCFPQPPKRNWFLGHLGLIHSSEEGLLYTQSLACTFGDMCCWWVGPWHAIVRIFHPTYIKPVLFAPAAIVPKDKVFYSFLKPWLGDGLLLSAGEKWSRHRRMLTPAFHFNILKPYMKIFNESVNIMHAKWQLLASEGSARLDMFEHISLMTLDSLQKCVFSFDSHCQEKPSEYIAAILELSALVTKRHQQILLYIDFLYYLTPDGQRFRRACRLVHDFTDAVIQERRRTLPSQGVDDFLQAKAKSKTLDFIDVLLLSKDEDGKKLSDEDIRAEADTFMFEGHDTTASGLSWVLYHLAKHPEYQERCRQEVQELLKDREPKEIEWDDLAQLPFLTMCIKESLRLHPPVPAVSRCCTQDIVLPDGRVIPKGIICLISVFGTHHNPAVWPDPEVYDPFRFDPKNIKERSPLAFIPFSAGPRNCIGQAFAMAEMKVVLGLTLLRFRVLPDHTEPRRKPELVLRAEGGLWLRVEPLS
With B8 the Km [8] was 5 µM and the Vmax [8] was 0.000121 µmol/min/mg.
